Data as given in article PMC13234300, “De novo and scaffold-based design of GDF15 binders for cancer cachexia diagnostics and therapeutics” (Experimental & Molecular Medicine, 2026).
Each block holds one molecule with its values, some of them ahead of it.

How the values were obtained:
[1] = molecular target: recombinant mature human GDF15 dimer, N-glyco-engineered variant (R198N and G200T), Twin-Strep tagged (human) (UniProt Q99988); assay: SPR
[2] = molecular target: T1, recombinant mature human GDF15 dimer, N-glyco-engineered variant (R198N and G200T), Twin-Strep tagged (human, UniProt Q99988 198-308, R198N | G200T); assay: SPR
T1 sequence: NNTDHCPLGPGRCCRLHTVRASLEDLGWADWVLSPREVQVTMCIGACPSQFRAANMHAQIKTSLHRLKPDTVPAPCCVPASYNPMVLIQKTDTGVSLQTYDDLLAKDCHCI

[3] = molecular target: T2, recombinant mature human GDF15 dimer, N-glyco-engineered variant (R198N and G200T), Twin-Strep tagged (human, UniProt Q99988 198-308, R198N | G200T); assay: SPR; Biacore T200; GDF15 dimer immobilised on CM5 chip by amine coupling; HBS-EP+; analyte 5-50 nM in the figure; 1:1 binding model; apparent (avidity of the Fc dimer); conditions: both partners purified
T2 construct: mature human GDF15, residues 198–308, N-glyco-engineered variant (R198N and G200T); no cleavage step is described (eluted with desthiobiotin, then SEC); also called Twin-Strep-GDF15 dimer; growth differentiation factor-15; source: Expi293F, transfected, purified from supernatant (Strep-Tactin-XT, SEC)
T2 sequence (looked up): T1 sequence

[4] = molecular target: T2, recombinant mature human GDF15 dimer, …; assay: SPR; Biacore T200; GDF15 dimer immobilised on CM5 chip by amine coupling (10 mM sodium acetate, pH 5.5); HBS-EP+ (0.01 M HEPES pH 7.4, 0.15 M NaCl, 3 mM EDTA, 0.05% P20); analytes 5-100 nM, 300 s association, 300 s dissociation, 30 μl/min; two-state reaction model; conditions: both partners purified

- Kd [1]: 0.0802 nM
- koff [1]: 2.24e-05 s⁻¹
Molecule: ponsegromab

- koff [2]: 7.16e-05 s⁻¹
- Kd [3]: 0.081 nM
B1: SGA2-4-Fc (Fc-fused SGA2-4 binder, homodimeric decoy receptor) (Fc fusion)
chain: VTVFEALDAIIADPQSNAALAAHLKAVAALPADATKAQVDAIYDAFLAQLPAEVRAKVLAAKPDPTNPDEIQLYNQLRGYDKL
modifications: Homodimer through a C-terminal human IgG Fc (isotype and limits not given). The Fc, thrombin site and 6xHis tag are left out; the Fc only provides bivalency/avidity. Expressed in mammalian cells.

- Kd [4]: 90.4 nM
B2: human GFRAL D2 domain (residues 115–217) (domain or fragment, UniProt Q6UXV0 115-217, looked up)
chain: WNLTTRSHHGFKGMWSCLEVAEACVGDVVCNAQLASYLKACSANGNPCDLKQCQAAIRFFYQNIPFNIAQMLAFCDCAQSDIPCQQSKEALHSKTCAVNMVPP
notes: human GFRAL (glial cell-derived neurotrophic factor family receptor alpha-like), D2 domain, residues 115–217; the expressed construct as residues 115–217; also called hGFRAL D2; initial scaffold; source: Expi293F, transfected, purified (protein A, on-resin thrombin cleavage, SEC); not shown: Fc, C-terminal, cleaved
